The data set in a line: soluble on expression in E. coli; label from the status in PepcDB or PDB records.
“MHDRSYTLDDVTVAMGTYNEAAAIDTVLTDIADATDDRARVVCVDGSSDRTPEIAREHGATVIEQEPQGYGVAVAAALDAADTPVVITTDCDNTYPMERIPAFLARINEGYDVVSGDRLYWGADTMPAFNRLGNAAFAAITSLLVGERVHDTTTGMRAYRAPVIDAIDWTQNTGLSAELLIRPLCRNYDVIEEPIGYADRLGDTKLDPLEGGAEILGSILKVCAEERLPLEHHHHHH”: the “soluble on expression in E. coli” value is “not soluble”.

Regarding “MGSDKIHHHHHHMPKERVDVLAYKQGLFNTREQAKRGVMAGLVVNVINGERYDKPGEKIDEATELKLKGDKLKYVSRGGLKLEKALKVFVISVDGQITLDIGASTGGFTDVMLQNGAQLVYAVDVGTNQLVWKLRQDERVCSMEQYNFRYAEPSDFERGQPTFASIDVSFISLNLILPALSKILTDGGQVVALIKPQFEAGREQIGKHGIVKDKSVHETVLETVTTFATNYGFTVKELDFSPIQGGHGNIEFLAYLEKSAQAQNQVLTKIKSIVEQAHKEFKKNEET”, the “soluble on expression in E. coli” value is given as “not soluble”.

For the sequence “MTDPARMVELWRGGLLESWHTGHAAVWSADGGLVEAWGDPGTVIFPRSSCKMMQALPLLESGAGAGLSSQRLALACASHQGAELHTGHVGRWLTDLGLCEADLRCGAHMPADTAERDRLIRAYEEPCQIHNNCSGKHAGFLMLSQHLKAGPEYVEIDHPVQQAVRTAFEEVTDEASPGYGIDGCSAPNFATTVAGLARAMAFFAGASTGGGVRERSAARLVEAMIAHPELVAGEGRACTELMRAMGGRAAIKTGAEAVFVAIVPEKRLGIALKIVDGSTRASEAAIAALLVRHGLLDPAHPAARKRLDAIQTNWRGRETGILRAAPGFPLEHHHHHH”, the “soluble on expression in E. coli” value is “not soluble”.

As to “MSLGTILHSELEKFYDPNLIVGNETADDAAVYDLGNGTAIISTTDFFMPIVDDPFDFGRIAATNAISDIFAMGGKPIMGIAILGFPTNVLPAEVAQKIVDGGRFACHQAGIALAGGHSIDSPEPIFGLAVTGVIDTEKVKRNASAKSGCKLYMTKPLGIGILTTAEKKGKLKPEHQGLATAAMCQMNSIGSQFSQVDGVTAMTDVTGFGLLGHLIEICEGSNLSAVVFSDKIKTLDGVKDYIAQGCVPGGTGRNFDSYGHKVGILTEEQKAILCDPQTSGGLLVAVELNSVQTVIDIAKDAGIDLYEVGKLKPKSESDIVVEVKEGHHHHHH”, the “soluble on expression in E. coli” value is listed as “soluble”.

Regarding “MASHMERDPQVAGLKVPPHSIEAEQSVLGGLMLDNERWDDVAERVVADDFYTRPHRHIFTEMARLQESGSPIDLITLAESLERQGQLDSVGGFAYLAELSKNTPSAANISAYADIVRER”, the “soluble on expression in E. coli” value is recorded as “soluble”.

For “MSIAEFAYKEKPETLVLFDVDGTLTPARLTVSEEVRKTLAKLRNKCCIGFVGGSDLSKQLEQLGPNVLDEFDYSFSENGLTAYRLGKELASQSFINWLGEEKYNKLAVFILRYLSEIDLPKRRGTFLEFRNGMINVSPIGRNASTEERNEFERYDKEHQIRAKFVEALKKEFPDYGLTFSIGGQISFDVFPAGWDKTYCLQHVEKDGFKEIHFFGDKTMVGGNDYEIFVDERTIGHSVQSPDDTVKILTELFNL”, the “soluble on expression in E. coli” value was “soluble”.

With “MAQTIQLANHSEMTIIDNDLHVDVIGNQAHFSFSGLHNKTFTDREVLFEMPFLYEHEANVIGDGFQMLAQTSGTITHPIEIGRCPDNIPPYRVYSQHAPKRYYNYLVIEDSAGYTLFGFTTCRRFAGYFDIQQRNGQWILTAAIDGEHTQVADWEHNQ”, the “soluble on expression in E. coli” value is “not soluble”.

“GSHMLEMRIGHGFDVHAFGGEGPIIIGGVRIPYEKGLLAHSDGDVALHALTDALLGAAALGDIGKLFPDTDPAFKGADSRELLREAWRRIQAKGYTLGNVDVTIIAQAPKMLPHIPQMRVFIAEDLGCHMDDVNVKATTTEKLGFTGRGEGIACEAVALLIKATK”: the “soluble on expression in E. coli” value is listed as “soluble”.

In the case of “MAEPAQETPCFSMEKAERAFLDGNFEEALKHFFVCIRMLPVERRGVYEDQFAAALHGWIALDHNNASRAVCLYPQIKELFPETIRTKIALIRAVQGTEQSKWLLNCLPICKDSMDLATKPEDLVALRIARVNLTTIPFPQWHIRMINDVKRNEAFAKALNDTIKSRITVVFDIGSGTGILSAIAARKTNLVTALEENMCLTMISKEVLKRNGVESRVNVHAKNSTYFETCEKADIVVSETLDCCVFGEKIVETFLDAHVRFSHDRTIFIPHQATVYVRLFSCREIFDIHCQDYGGVRYRSEYVKIGESDAEQPYWCASAADYSQFELLSGSVAMHSVDFSSIANLKDSLANSNSFKIRPAKDGVAHGFSVHFTSDLTGHGDNIIDSSKSRAWDLGIIPFKEPCLVKCDKEYEGSWKLLNNRLDVYNDFYDENLQKHEDSLRYETASLDQLQKIRDDSYFKAMMGEIDPIELPFTRDISSSIPAQCVLNTVESQTPIRHLITNFCRYDGTLDQETFFRIEEFVGFRDHVQKIVPTKFRILGHLFYSDRVHFDARPDPSAHCQVDLSTVRSFNLREMRDIRLTQREDIVMASKEFVLYDFNISAEKFRQDTYITVTQDVTVQPTRPIADGVIYEFEILGIRNTKLRPVAAFLFPERVNTNPDMTVVFDLHLGEMLISLKDLP”, the “soluble on expression in E. coli” value is on record as “not soluble”.

For “MSLFCLPLEMRNHWHFFSLFTNLPRKSKWHRASEFFFPLLMSEIEDFR”, the “soluble on expression in E. coli” value is reported as “soluble”.

Consider “MAHHHHHHMLQNMSNILDRTCWSCFFFFLKRKYSYMRRGTSTYPTTGCPLKKHEGGSHCPRARNWTASAGDIVGNGRRAEVGLARLKS”, for which the “soluble on expression in E. coli” value is listed as “not soluble”.

On to “GPGSMEFSGSTLSVVEVEHTVRQLRPFPLQDIGTAEWKNQREAVERLNMCTHSNAVLKKDDTVKAFLIEHEKLPVLLHELLVMEVWRQRVLPLIKDQIVQHPAGIYMYVQYEMVLLNLFECIAFHEEVVVALDEDVLELIDYCWRQASRLFAEQNVNEVQSKPTARDVSNAANTVEEVLKSADRQMLHAIYQRAMASLSILWFIIDRLNQLPLAASNSVLVKNDLILGLTEVMLLQPWLRRSSEATQKFFNGEFKDIPRADVLLVCTPEAHTWFSLHKLLCDPECRRRYSYTQSKKELILRIRHFLNDTLVDQIPALASLQRALEELSFLQPPSGTEEKFKSTLTIEQVPRIMTLVEVERKGSWDDLASTLRAMLQDPSVRNEDAMRLSRIFDEMFSDQLK”, for which the “soluble on expression in E. coli” value is “not soluble”.

For the sequence “MLDMNPQETYTAPEEVNTPSRPIDENALLQRHQVMVKRVVNQLRVHATSHCSIEDMQQIGLIALVEAGRRYGDIDDTHFPAFAVCRVRGAILDELRRLDWRSRKTRQQAHELNDVTRDLTRSLGRMPTDSEIIKALGTDEQDYYNRQNAALAGEMQSLDQLMENSTDSHFGGQYDGMEHEHIRRSLDSALGRLSKRDQLLLTLFYQHELNLHEIALVLDLTPPRICQLHKQALKQLNQLMSS”, the “soluble on expression in E. coli” value is on record as “not soluble”.

Regarding “MSLREIVLINITGVDRPGLTAAITGVLAQGGVNILDIGQAVIHDTLSFGILVEIPDTVQGSSVLKDILFTAYKLDQQVRFTAVSEEGYQHWVEGQGKARHIVTLLTRKVTAEQLQCVSAITAKYGLNIDQIDRLSGRMPLDTPADKGKGCIEFTVRGEPADPKAMQAEFLAVAQELNVDIAFQQDSLFRRNRRLAVFDMDSTLIEAEVIDELAKAAGVGEQVAEITERAMRGELDFSESFKERLALLKGLDVGVLDEIGASLRLTEGAETLFSELKRLGYKTAILSGGFTYFAKQLQAKLGIDYVYANELEVVDGKVTGVAVEPIVNAQRKADLLRELAHKEGLSLEQTIAVGDGANDLPMLAIAGLGVAFRAKPLVKQSAKQAISTLGLDGVLYLLGEGHHHHHH”, the “soluble on expression in E. coli” value is on record as “soluble”.

In the case of “SKAQEKGEAISLAFKGVKAEFLKRPEADVHFVCNDGHVIDEMLDHTIATGERVNRDVKIIALCPSLHGQEPMAEFALTLSIKKAAQHTKKAA”, the “soluble on expression in E. coli” value is given as “not soluble”.

As for “GIVPYGGNLTVLDLVQKYIGQKKGVRHNTQANYDFVINIIKKEEFGTRRIDKIKLSDAKAWFIKLQADGRGYSSIHSVRGIVRPAFQMAVEDDLLRKNPFEFQLCTVVVNDSVTRQAITKEQEELFLEFIRNDDHYSKYYNGMFILFKTGLRISEFCGLTVKDIDLQERKINVNHQLQRTRGMQYVIEDTKTSSGTRMLPMTDEVYECFEQIVKNRKKVRVEPIVDGYSRFLFLDKKDMPEVALHWEKHFQWALGKYNRTHEEQMPKITPHVCRHTYCSNMAKAGMNPKALQYLMGHSDIGVTLNVYTHLGLIDAKEEMNRIAKLA”, the “soluble on expression in E. coli” value is recorded as “not soluble”.

Regarding “MGSDKIHHHHHHMNYFSYLSLEERQNFFYKEPLSFSKNIEKEQLAYALGATLYTPGTKETIAEDIIRKKHVEATSIIFCLEDSISDKEVKFAEQNIVFQIQQISNLVSDNILNQADIPLLFIRVRQPSQMRTIVTELGSAVHCLCGFVFPKFTPVNGKSYIDQLAYINKLYSLSLYGMPILESPEIMYRETRVKSLLQIKDLLDSYRDYILNVRIGATDFSSIFGIRRNKHTPIYHITVVRDCISDIINIFSRATNGYVISGCVWEYFSNDYEEGLIQEVSLDHANGLIGKTVIHPSHIKVVQAMHIVTMEDYLDARSILQHANTYNGVLKSSFANKMNEVKPHYNWARKTILKSNIYGVLHENKQFTDLLITNAKQHV”, the “soluble on expression in E. coli” value is “not soluble”.

On to “MLKLLIVDDAMFMRTMIKNIVKDSDFEVVAEAENGLEAVKKYDEVKPDIVTLDITMPEMDGLEALAQIMAKDPSAKVIMCSAMGQQGMVVDAIKKGAKDFIVKPFQADRVLEALEKAAK”, for which the “soluble on expression in E. coli” value was “not soluble”.

Turning to “TAPIAITCFTRGLDIRKEKADVLCPGGCPLEEFSVYGNIVYASVSSICGAAVHRGVISNSGGPVRVYSLPGRENYSSVDANGIQSQMLSRWSASFTVTLE”, the “soluble on expression in E. coli” value was “soluble”.

In the case of “MSLEQVEILRKFIQRVQAMKSPDHNGEDNFARDFMRLRRLSTKYRTEKIYPTATGEKEENVKKNRYKDILPFDHSRVKLTLKTPSQDSDYINANFIKGVYGPKAYVATQGPLANTVIDFWRMIWEYNVVIIVMACREFEMGRKKCERYWPLYGEDPITFAPFKISCEDEQARTDYFIRTLLLEFQNESRRLYQFHYVNWPDHDVPSSFDSILDMISLMRKYQEHEDVPICIHCSAGCGRTGAICAIDYTWNLLKAGKIPEEFNVFNLIQEMRTQRHSAVQTKEQYELVHRAIAQLFEKQLQLYEIHGAQKIADGVNEINTENEGHHHHHH”, the “soluble on expression in E. coli” value is “soluble”.

Take “SYVQDYRSPFIASVSDQHGVVYITENKNKTVVIPCLGSISNLNVSLCARYPEKRFVPDGNRISWDSKKGFTIPSYMISYAGMVFCEAKINDESYQSIMYIVVVVGYRIYDVVLSPSHGIELSVGEKLVLNCTARTELNVGIDFNWEYPSSKHQHKKLVNRDLKTQSGSEMKKFLSTLTIDGVTRSDQGLYTCAASSGLMTKKNSTFVRVHEKPFVAFGSG”: the “soluble on expression in E. coli” value is listed as “soluble”.

Turning to “MAKGDVITLNFETFVDSDTQVKVTRLTPTDVICHRNYFYQKCFTQDGKKLLFAGDFDGNRNYYLLNLETQQAVQLTEGKGDNTFGGFISTDERAFFYVKNELNLMKVDLETLEEQVIYTVDEEWKGYGTWVANSDCTKLVGIEILKRDWQPLTSWEKFAEFYHTNPTCRLIKVDIETGELEVIHQDTAWLGHPIYRPFDDSTVGFCHEGPHDLVDARMWLVNEDGSNVRKIKEHAEGESCTHEFWIPDGSAMAYVSYFKGQTDRVIYKANPETLENEEVMVMPPCSHLMSNFDGSLMVGDGCDAPVDVADADSYNIENDPFLYVLNTKAKSAQKLCKHSTSWDVLDGDRQITHPHPSFTPNDDGVLFTSDFEGVPAIYIADVPESYKHLEHHHHHH”, the “soluble on expression in E. coli” value was “soluble”.
